Our source for the Kd values is paper PMC5641968 (2017).

Like-named read-outs stand apart in the source and are kept apart here.

Common to all, as to test: biolayer interferometry
On the technique in general: Biolayer interferometry detects binding as a change in optical thickness at a sensor tip.

In assay [1] the target is calmodulin (UniProt P0DP23).
The target in assay [2] is calmodulin (UniProt P0DP23). The source holds these as a separate data set.
Assay [3] addresses calmodulin (UniProt P0DP23). This is another data set of the same source.

B1: eNOS (protein)
chain: GNLKSVGQEPGPPCGLGLGLGLGLCGKQGPASPAPEPSRAPAPATPHAPDHSPAPNSPTLTRPPEGPKFPRVKNWELGSITYDTLCAQSQQDGPCTPRCCLGSLVLPRKLQTRPSPGPPPAEQLLSQARDFINQYYSSIKRSGSQAHEERLQEVEAEVASTGTYHLRESELVFGAKQAWRNAPRCVGRIQWGKLQVFDARDCSSAQEMFTYICNHIKYATNRGNLRSAITVFPQRAPGRGDFRIWNSQLVRYAGYRQQDGSVRGDPANVEITELCIQHGWTPGNGRFDVLPLLLQAPDEAPELFVLPPELVLEVPLEHPTLEWFAALGLRWYALPAVSNMLLEIGGLEFSAAPFSGWYMSTEIGTRNLCDPHRYNILEDVAVCMDLDTRTTSSLWKDKAAVEINLAVLHSFQLAKVTIVDHHAATVSFMKHLDNEQKARGGCPADWAWIVPPISGSLTPVFHQEMVNYILSPAFRYQPDPWKGSATKGAGITRKKTFKEVANAVKISASLMGTLMAKRVKATILYASETGRAQSYAQQLGRLFRKAFDPRVLCMDEYDVVSLEHEALVLVVTSTFGNGDPPENGESFAAALMEMSGPYNSSPRPEQHKSYKIRFNSVSCSDPLVSSWRRKRKESSNTDSAGALGTLRFCVFGLGSRAYPHFCAFARAVDTRLEELGGERLLQLGQGDELCGQEEAFRGWAKAAFQASCETFCVGEEAKAAAQDIFSPKRSWKRQRYRLSTQAEGLQLLPGLIHVHRRKMFQATVLSVENLQSSKSTRATILVRLDTAGQEGLQYQPGDHIGICPPNRPGLVEALLSRVEDPPPPTESVAVEQLEKGSPGGPPPSWVRDPRLPPCTLRQALTFFLDITSPPSPRLLRLLSTLAEEPSEQQELETLSQDPRRYEEWKWFRCPTLLEVLEQFPSVALPAPLLLTQLPLLQPRYYSVSSAPNAHPGEVHLTVAVLAYRTQDGLGPLHYGVCSTWLSQLKTGDPVPCFIRGAPSFRLPPDPYVPCILVGPGTGIAPFRGFWQERLHDIESKGLQPAPMTLVFGCRCSQLDHLYRDEVQDAQERGVFGRVLTAFSREPDSPKTYVQDILRTELAAEVHRVLCLERGHMFVCGDVTMATSVLQTVQRILATEGDMELDEAGDVIGVLRDQQRYHEDIFGLTLRTQEVTSRIRTQSFSLQERHLRGAVPWAFDPPGPDTPGP
modifications: Ca2+
B1: the Kd with calmodulin [1] was 0.645 nM; with calmodulin [2], 0.65 nM; with calmodulin [3], 0.5 nM.

What is called Kd is the concentration at which binding is half-saturated. A low value points to tighter binding.
